Measurements published in the MegaScale stability set (Tsuboyama et al. 2023).

B1: HHH_rd1_0493 (parent)
chain: RDEDEKEKIKEALKRGNEDKAKEIAKRANVSPEEYERLRKEAE

Variants of: B1
Experiment: folding stability dG (cDNA display proteolysis); higher = more stable
Settings: PBS, room temperature

Folding stability dG [kcal/mol] of substitutions, site by site:
I9: E 0.589 | G 0.603 | Q 0.476 | S 0.587 | M 1.48 | W 0.614 | C 1.26 | R 0.406 | D 0.479 | A 0.796 | T 0.61 | P 0.579 | F 0.774 | N 0.856 | Y 0.577 | V 2.09 | K 0.396 | H 0.471 | L 2.28
K10: R 2.49 | G 0.528 | L 2.79 | D 0.644 | M 2.02 | N 0.92 | P 0.064 | W 1.57 | A 1.09 | V 2.28 | F 2.11 | S 1.27 | T 1.7 | Y 2.01 | Q 0.854 | E 0.847 | C 2.32 | H 0.938 | I 2.8
A12: D 0.746 | G 0.656 | Y 2.88 | H 2.85 | N 2.1 | V 1.06 | L 3.02 | R 0.882 | K 0.896 | P 0.229 | T 1.43 | W 3.01 | F 2.87 | M 2.86 | C 1.94 | I 1.24 | Q 2.69 | S 2.15 | E 2.85
A25: F 0.695 | E 0.618 | C 1.54 | D 0.442
R15: L 3.09 | C 2.31 | H 3 | P 0.627 | W 2.81 | M 3.21 | Y 2.69 | S 3.1 | A 3.36 | V 2.83 | D 2.85 | F 2.62 | T 2.81 | E 3.24 | K 2.91 | N 3.17 | I 2.77 | G 2.71 | Q 3.39
G16: D 1.47 | I 0.476 | E 1.19 | P 0.767 | S 1.29 | C 1.76 | M 1.46 | W 0.968 | V 0.445 | F 1.55 | L 1.39 | Q 1.56 | A 1.67 | Y 0.998 | K 1.73 | T 0.598 | H 2.04 | N 1.91 | R 1.97
K14: D 1.1 | F 1.8 | R 3.32 | A 2.53 | H 2.28 | G 1.98 | E 1.75 | C 2.24 | P 0.417 | Q 2.3 | W 1.9 | V 2.33 | T 2.07 | M 2.79 | I 2.67 | L 2.67 | S 2.36 | Y 1.97 | N 1.81
E11: H 2.38 | Q 2.83 | Y 1.67 | G 2.34 | P 0.82 | R 2.54 | V 2.04 | F 1.56 | C 2.99 | D 2.96 | L 2.71 | M 2.67 | A 2.82 | S 2.58 | K 2.24 | W 1.91 | I 2.42 | T 2.29 | N 2.88
A21: L 0.541 | R 0.336 | W 0.514 | Q 0.364 | C 1.29 | V 0.589 | G 1.13 | D 0.52 | M 0.506 | P 0.448 | S 1.11 | H 0.313 | T 0.424 | N 0.483 | K 0.184 | F 0.6 | Y 0.355 | E 0.568 | I 0.511
K22: M 3.03 | Q 2.86 | S 2.2 | F 2.31 | N 2.11 | R 3.21 | I 2.8 | E 2.26 | A 2.61 | L 3.1 | H 2.46 | Y 2.11 | P 0.613 | C 1.79 | T 2.24 | V 2.44 | W 2.75 | D 1.73 | G 1.64
N17: Y 2.75 | A 2.65 | G 1.46 | T 1.63 | W 3.09 | E 3.38 | M 2.94 | H 3.01 | D 3.78 | C 1.99 | R 2.68 | Q 3.2 | L 3.13 | S 2.19 | V 1.45 | P 1.03 | F 2.98 | I 1.54 | K 2.41
I24: Q 1.13 | C 1.77 | E 1.16 | M 2.13 | H 1.67 | T 1.32 | N 0.704 | A 1.47 | K 0.623 | Y 1.73 | G 0.729 | L 2.8 | D 0.95 | V 1.87 | W 1.34 | R 1.04 | S 0.921 | F 1.48 | P 0.59
D19: I 2.95 | Q 3.15 | Y 2.5 | G 2.76 | E 3.28 | L 2.98 | R 2.97 | A 3.31 | W 2.72 | S 2.93 | N 2.86 | V 2.99 | P 2.64 | K 3.07 | H 2.85 | M 3.04 | T 3.05 | F 2.6
E23: R 2.39 | L 2.16 | F 1.7 | T 2.22 | A 2.87 | P 0.537 | K 2.26 | Y 1.79 | D 2.56 | V 2.17 | S 2.42 | C 2.49 | I 2.35 | N 2.02 | W 1.79 | M 2.33 | G 1.92 | H 1.96 | Q 2.73
L13: H 0.865 | W 1.14 | Q 0.615 | N 0.415 | K 0.273 | P 0.435 | E 0.376 | R 0.401 | I 2.84 | F 2.85 | G 0.235 | C 1.37 | S 0.332 | V 1.58 | A 0.528 | M 2.49 | D 0.379 | T 0.471 | Y 0.88
K20: A 3.16 | E 3.82 | T 2.76 | Q 3.19 | I 3.16 | S 2.6 | N 2.27 | P 0.93 | D 2.85 | R 3 | H 2.87 | M 3.37 | Y 3.13 | F 2.98 | V 3.24 | G 2.5 | W 3.02 | L 4.31
E18: I 3.25 | K 2.25 | D 2.47 | W 2.62 | G 2.06 | A 2.59 | S 2.47 | Q 2.54 | L 2.86 | P 2.48 | F 3.24 | V 3.19 | H 2.94 | Y 3.21 | T 2.84 | R 2.15 | M 2.74 | N 2.29 | C 2.58
K8: E 2.66 | T 2.27 | W 2.44 | M 3.08 | D 2.25 | L 3.06 | A 3.29 | V 1.94 | Q 3.15 | P 0.847 | S 2.78 | R 3 | F 2.12 | H 2.42 | I 2.1 | C 2.37 | G 2.34 | Y 2.09 | N 2.55
E7: Q 3.13 | P 1.58 | V 2.97 | S 2.92 | R 3.15 | N 2.96 | W 3.29 | T 3 | Y 2.85
